Test results as given in PMC10321576 (2023).
Blank lines part the entries; values can stand above or below the binder they belong to. Bridge positions count the residues as written; N and C are the ends. Square brackets hold non-standard residues; d marks the D form. Ends that are not written are not given here. Lys(Me3) = C[N+](C)(C)CCCC[C@H](N)C(=O)O

T1: KDM7B PHD-finger (UniProt Q9UPP1-2 1-447)
T1 chain: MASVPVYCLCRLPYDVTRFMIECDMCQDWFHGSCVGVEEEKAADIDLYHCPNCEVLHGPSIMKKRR

T2: KDM7A (KIAA1718) PHD-finger
T2 chain: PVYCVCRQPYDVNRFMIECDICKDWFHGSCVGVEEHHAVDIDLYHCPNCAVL

T3: KDM7C (PHF2) PHD-finger
T3 chain: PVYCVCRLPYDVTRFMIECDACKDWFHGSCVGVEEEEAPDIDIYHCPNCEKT

T4: ING2 PHD-finger
T4 chain: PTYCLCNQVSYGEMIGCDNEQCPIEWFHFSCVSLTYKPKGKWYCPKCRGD

T5: KDM5A PHD3 PHD-finger
T5 chain: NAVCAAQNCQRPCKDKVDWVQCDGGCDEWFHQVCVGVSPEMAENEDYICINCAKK

T6: TAF3 PHD-finger
T6 chain: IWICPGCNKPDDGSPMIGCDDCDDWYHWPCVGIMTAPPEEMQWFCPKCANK

T7: DIDO1 PHD-finger
T7 chain: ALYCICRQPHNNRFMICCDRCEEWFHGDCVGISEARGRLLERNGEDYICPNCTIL

B1: KDM7B (PHF8, JHDM1F) dual domain (PHD-JmjC) (domain or fragment)
chain: MASVPVYCLCRLPYDVTRFMIECDMCQDWFHGSCVGVEEEKAADIDLYHCPNCEVLHGPSIMKKRRGSSKGHDTHKGKPVKTGSPTFVRELRSRTFDSSDEVILKPTGNQLTVEFLEENSFSVPILVLKKDGLGMTLPSPSFTVRDVEHYVGSDKEIDVIDVTRQADCKMKLGDFVKYYYSGKREKVLNVISLEFSDTRLSNLVETPKIVRKLSWVENLWPEECVFERPNVQKYCLMSVRDSYTDFHIDFGGTSVWYHVLKGEKIFYLIRPTNANLTLFECWSSSSNQNEMFFGDQVDKCYKCSVKQGQTLFIPTGWIHAVLTPVDCLAFGGNFLHSLNIEMQLKAYEIEKRLSTADLFRFPNFETICWYVGKHILDIFRGLRENRRHPASYLVHGGKALNLAFRAWTRKEALPDHEDEIPETVRTVQLIKDLAREIRLVEDIFQQN

Experiments:
KDM7B PHD-finger [1] = target: T1, KDM7B PHD-finger
[2] = target: T2, KDM7A (KIAA1718) PHD-finger; experiment: ITC
[3] = target: KDM7A (KIAA1718) dual domain; experiment: ITC
Sequence of KDM7A (KIAA1718) dual domain (chain, as listed by the source): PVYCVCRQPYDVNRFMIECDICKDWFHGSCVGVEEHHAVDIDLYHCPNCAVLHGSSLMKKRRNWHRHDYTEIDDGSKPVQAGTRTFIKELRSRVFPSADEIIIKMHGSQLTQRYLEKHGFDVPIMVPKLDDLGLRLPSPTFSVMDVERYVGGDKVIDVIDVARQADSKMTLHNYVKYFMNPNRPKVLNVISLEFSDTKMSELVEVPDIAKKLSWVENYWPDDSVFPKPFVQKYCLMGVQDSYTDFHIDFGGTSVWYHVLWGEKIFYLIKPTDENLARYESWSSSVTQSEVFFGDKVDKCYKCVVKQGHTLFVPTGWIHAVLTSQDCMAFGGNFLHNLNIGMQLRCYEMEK

[4] = target: T2, KDM7A (KIAA1718) PHD-finger; experiment: ITC
[5] = target: T2, KDM7A (KIAA1718) PHD-finger
KDM7C (PHF2) PHD-finger [6] = target: T3, KDM7C (PHF2) PHD-finger
[7] = target: SPIN1 triple tudor domain
Sequence of SPIN1 triple tudor domain (chain, as listed by the source): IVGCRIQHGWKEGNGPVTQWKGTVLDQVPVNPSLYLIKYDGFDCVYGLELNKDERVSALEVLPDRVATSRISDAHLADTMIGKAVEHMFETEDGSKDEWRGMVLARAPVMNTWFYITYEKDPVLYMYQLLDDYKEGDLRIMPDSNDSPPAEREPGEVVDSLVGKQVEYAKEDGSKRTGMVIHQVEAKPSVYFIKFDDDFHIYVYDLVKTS

ING2 PHD-finger [8] = target: T4, ING2 PHD-finger
KDM5A PHD3 PHD-finger = target: T5, KDM5A PHD3 PHD-finger
[9] = target: B1
[10] = target: KDM7A (KIAA1718) dual domain
TAF3 PHD-finger [11] = target: T6, TAF3 PHD-finger
KDM7B PHD-finger [12] = target: T1, KDM7B PHD-finger; experiment: ITC; His-Trx-tagged PHD
[13] = target: T2, KDM7A (KIAA1718) PHD-finger; experiment: BLI
KDM7C (PHF2) PHD-finger [14] = target: T3, KDM7C (PHF2) PHD-finger; experiment: BLI
[15] = target: SPIN1 triple tudor domain; experiment: BLI
ING2 PHD-finger [16] = target: T4, ING2 PHD-finger; experiment: BLI
DIDO1 PHD-finger = target: T7, DIDO1 PHD-finger; experiment: BLI
[17] = target: KDM7A (KIAA1718) dual domain; experiment: BLI
TAF3 PHD-finger [18] = target: T6, TAF3 PHD-finger; experiment: BLI
OC3 = experiment: ITC

IC50 (KDM7B PHD-finger [1]): 45 nM
Binder: YYL[dA]HPYPSVFRTC (ends and bridges not checked) [OC9 with T4 replaced with D-alanine]

Kd [2]: 31.6 nM | Kd [3]: 31.6 nM | Kd [4]: 33 nM | IC50 [5]: 63.1 nM | IC50 (KDM7C (PHF2) PHD-finger [6]): 25.1 nM | IC50 [7]: > 2000 nM | IC50 (ING2 PHD-finger [8]): > 5.01 µM | IC50 (KDM5A PHD3 PHD-finger): > 5.01 µM | IC50 [9]: 100 nM | IC50 [10]: 126 nM | IC50 (TAF3 PHD-finger [11]): > 5.01 µM | Kd (KDM7B PHD-finger [12]): 8 nM | Kd [13]: 20 nM | Kd (KDM7C (PHF2) PHD-finger [14]): 1 nM | Kd [15]: > 1000 nM | Kd (ING2 PHD-finger [16]): > 1000 nM | Kd (DIDO1 PHD-finger): > 1000 nM | Kd [17]: 39.8 nM | Kd (TAF3 PHD-finger [18]): > 1000 nM
Binder: {CH2CO}-YYLTHPYPSVFRTC (thioether N-14) [OC9, de novo cyclic peptide from mRNA display]

IC50 (KDM7B PHD-finger [1]): 20 nM
Binder: YYLT[dA]PYPSVFRTC (ends and bridges not checked) [OC9 with H5 replaced with D-alanine]

IC50 (KDM7B PHD-finger [1]): 234 nM
Binder: YYLTHPYPS[Lys(Me3)]FRTC (ends and bridges not checked) [OC9 V10Kme3]

Binder: B1
Kd (OC3): 163 nM
